Laboratory results as given in paper PMC11904782, “Armadillo domain of ARID1A directly interacts with DNA-PKcs to couple chromatin remodeling with nonhomologous end joining (NHEJ) pathway” (Nucleic Acids Research, 2025).

B3: His–ARID1A–ARM domain (1914–2285 aa) (domain or fragment, UniProt O14497 1914-2285, looked up)
chain: MLSTRSSTLTEDGAKSSEAIKESSKFPFGISPAQSHRNIKILEDEPHSKDETPLCTLLDWQDSLAKRCVCVSNTIRSLSFVPGNDFEMSKHPGLLLILGKLILLHHKHPERKQAPLTYEKEEEQDQGVSCNKVEWWWDCLEMLRENTLVTLANISGQLDLSPYPESICLPVLDGLLHWAVCPSAEAQDPFSTLGPNAVLSPQRLVLETLSKLSIQDNNVDLILATPPFSRLEKLYSTMVRFLSDRKNPVCREMAVVLLANLAQGDSLAARAIAVQKGSIGNLLGFLEDSLAATQFQQSQASLLHMQNPPFEPTSVDMMRRAARALLALAKVDENHSEFTLYESRLLDISVSPLMNSLVSQVICDVLFLIGQS
notes: ARID1A residues 1914-2285 (ARM domain); Limits are printed for the BLI ligand; also called His-tagged ARM domain of ARID1A

What was measured:
Conditions in all cases: both partners purified
[1] = biological target: B3; test: BLI; Octet Red K2; His–ARID1A–ARM domain immobilised on NTA biosensors; GST recombinant proteins as analytes in serial dilutions
[2] = biological target: B3; test: far-Western, overlay or dot blot; GST-fusion proteins separated by SDS–PAGE, transferred to PVDF, renatured through falling guanidine–HCl, incubated with His–ARID1A–ARM overnight at 4°C, probed with anti-His-tag antibody
GST-DNTT: aa 1–509 = biological target: T1, GST-DNTT: aa 1–509 (UniProt P04053 1-509); test: as above
T1 construct: DNA nucleotidylexotransferase (DNTT) residues 1-509; also called DNA nucleotidylexotransferase
T1 sequence (P04053 whole entry, the tested form may be a part): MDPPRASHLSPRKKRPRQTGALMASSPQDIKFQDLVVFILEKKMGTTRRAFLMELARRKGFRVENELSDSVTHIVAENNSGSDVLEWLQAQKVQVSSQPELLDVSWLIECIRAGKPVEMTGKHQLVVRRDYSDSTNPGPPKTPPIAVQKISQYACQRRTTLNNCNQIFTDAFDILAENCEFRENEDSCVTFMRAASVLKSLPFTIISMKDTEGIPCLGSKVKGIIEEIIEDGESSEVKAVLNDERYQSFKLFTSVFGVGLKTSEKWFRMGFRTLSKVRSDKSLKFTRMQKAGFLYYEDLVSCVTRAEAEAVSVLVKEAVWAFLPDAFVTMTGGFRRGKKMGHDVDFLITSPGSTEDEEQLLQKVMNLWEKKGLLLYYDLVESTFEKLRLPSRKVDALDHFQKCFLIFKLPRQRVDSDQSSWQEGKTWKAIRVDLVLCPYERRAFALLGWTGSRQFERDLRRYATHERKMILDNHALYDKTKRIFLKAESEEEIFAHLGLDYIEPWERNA

B1: wild-type GST–DNA–PKcs (3552–3691 aa) (domain or fragment, UniProt P78527 3552-3691, looked up)
chain: KEFVARIKSKLDQGGVIQDFINALDQLSNPELLFKDWSNDVRAELAKTPVNKKNIEKMYERMYAALGDPKAPGLGAFRRKFIQTFGKEFDKHFGKGGSKLLRMKLSDFNDITNMLLLKMNKDSKPPGNLKECSPWMSDFK
notes: DNA-PKcs residues 3552-3691; also called recombinant wild-type DNA-PKcs; longer amino acid region (3552–3691 aa)
binding result [1]: binds

B2: GST–DNA–PKcs ARID1A-binding region (3615–3660 aa), wild type (domain or fragment, UniProt P78527 3615-3660, looked up)
chain: AALGDPKAPGLGAFRRKFIQTFGKEFDKHFGKGGSKLLRMKLSDFN
notes: DNA-PKcs residues 3615-3660, printed as 45 amino acids
binding result [2]: binds

B3
binding result (GST-DNTT: aa 1–509): binds

B4: GST-POLB (7–53 aa) (domain or fragment)
chain: not shown
notes: DNA polymerase beta residues 7-53; Printed as GAT-POLB in the methods; also called GAT-POLB (7–53 aa); recombinant POLB
binding result [1]: binds

B5: GST-EZH2-C: aa 598–746 (domain or fragment)
chain: not shown
notes: enhancer of zeste 2 PRC2 subunit 2 (EZH2) residues 598-746
binding result [2]: binds
